Details in all cases: remark: other sources report otherwise
The target in test [1] is recombinant homotrimeric HA A/swine/Ontario/01911-2/99 H4N6 (Influenza A virus A/Swine/Ontario/01911-2/99 (H4N6)). Description: protein microarray, purified IgG, trimeric HA.
Test [2] concerns the target recombinant homotrimeric HA A/duck/Yangzhou/02/05 H8N4 (Influenza A virus A/duck/Yangzhou/02/2005(H8N4)). Description: protein microarray, purified IgG, trimeric HA.
Test [3] addresses recombinant soluble homotrimeric HA of A/Anhui/1/05 (H5N1) (Influenza A virus A/Anhui/1/2005(H5N1)). The test can be described thus: trimeric HA microarray, transfection supernatant set 2.
Test [4] addresses recombinant soluble homotrimeric HA of A/South Carolina/1/18 (H1N1) (Influenza A virus A/South Carolina/1/18 (H1N1)). The description is as above.
In test [5] the target is recombinant soluble homotrimeric HA of A/Netherlands/219/03 (H7N7) (Influenza A virus A/Netherlands/219/03(H7N7)). Described as above.
Test [6] deals with recombinant soluble homotrimeric HA of A/chicken/Vietnam/NCVD-016/08 (H5N1) (Influenza A virus A/chicken/Vietnam/NCVD-016/2008(H5N1)). The description is as above.
For test [7], the target named is recombinant soluble homotrimeric HA of A/Indonesia/5/05 (H5N1) (Influenza A virus A/Indonesia/5/2005(H5N1)). The test is described as above.
For test [8], the target named is recombinant soluble homotrimeric HA of A/Vietnam/1203/04 (H5N1) (Influenza A virus A/VietNam/1203/2004(H5N1)). The description is as above.
For test [9], the target named is recombinant soluble homotrimeric HA of A/Solomon Islands/3/06 (H1N1) (Influenza A virus A/Solomon Islands/3/2006(H1N1)). The description is as above.
Test [10] deals with T1, recombinant soluble homotrimeric HA of A/Egypt/3300-NAMRU3/08 (H5N1) (Influenza A virus A/Egypt/3300-NAMRU3/2008(H5N1)). The description is as above.
The target in test [11] is recombinant soluble homotrimeric HA of A/California/4/09 (H1N1) (Influenza A virus A/California/04/2009(H1N1)). Described as above.
The target of test [12] is recombinant soluble homotrimeric HA of A/Japan/305/57 (H2N2) (Influenza A virus A/Japan/305/1957(H2N2)). The description is as above.
In test [13] the target is recombinant soluble homotrimeric HA, A/Indonesia/5/05 H5N1 (Influenza A virus A/Indonesia/5/2005(H5N1)). The test can be described thus: microarray, transfection SN IgG, trimeric HA.
Test [14] deals with recombinant soluble homotrimeric HA, A/Japan/305/57 H2N2 (Influenza A virus A/Japan/305/1957(H2N2)). Description: microarray, transfection SN IgG, trimeric HA.
Test [15] addresses recombinant soluble homotrimeric HA, A/South Carolina/1/18 H1N1 (Influenza A virus A/South Carolina/1/18 (H1N1)). The test can be described thus: microarray, transfection SN IgG, trimeric HA.
Test [16] has as its target recombinant soluble homotrimeric HA, A/Hong Kong/156/97 H5N1 (Influenza A virus A/Hong Kong/156/97 (H5N1)). The test can be described thus: microarray, transfection SN IgG, trimeric HA.
Test [17] has as its target recombinant soluble homotrimeric HA, A/Solomon Islands/3/06 H1N1 (Influenza A virus A/Solomon Islands/3/2006(H1N1)). The test can be described thus: microarray, transfection SN IgG, trimeric HA.
Test [18] deals with recombinant soluble homotrimeric HA, A/chicken/Vietnam/NCVD-016/08 H5N1 (Influenza A virus A/chicken/Vietnam/NCVD-016/2008(H5N1)). Description: microarray, transfection SN IgG, trimeric HA.
Test [19] deals with recombinant soluble homotrimeric HA, A/Anhui/1/05 H5N1 (Influenza A virus A/Anhui/1/2005(H5N1)). Description: microarray, transfection SN IgG, trimeric HA.
For test [20], the target named is recombinant soluble homotrimeric HA, A/Vietnam/1203/04 H5N1 (Influenza A virus A/VietNam/1203/2004(H5N1)). The test can be described thus: microarray, transfection SN IgG, trimeric HA.
For test [21], the target named is recombinant soluble homotrimeric HA, A/California/4/09 H1N1 (Influenza A virus A/California/04/2009(H1N1)). Description: microarray, transfection SN IgG, trimeric HA.
Test [22] deals with recombinant soluble homotrimeric HA, A/Egypt/3300-NAMRU3/08 H5N1 (Influenza A virus A/Egypt/3300-NAMRU3/2008(H5N1)). Description: microarray, transfection SN IgG, trimeric HA.
For test [23], the target named is recombinant soluble homotrimeric HA, A/northern shoveler/California/HKWF115/07 H6N4 (Influenza A virus A/northern shoveler/California/HKWF115/2007(H6N1)). The test can be described thus: microarray, transfection SN IgG, trimeric HA.
Test [24] concerns the target T1, recombinant soluble homotrimeric HA of …. Description: HA microarray, BCC supernatant.
Test [25] concerns the target recombinant soluble homotrimeric HA, A/duck/Yangzhou/02/05 H8N4 (Influenza A virus A/duck/Yangzhou/02/2005(H8N4)). The test can be described thus: microarray, transfection SN IgG, trimeric HA.
Test [26] addresses recombinant soluble homotrimeric HA, A/Wisconsin/67/05 H3N2 (Influenza A virus A/Wisconsin/67/2005(H3N2)). The test can be described thus: microarray, transfection SN IgG, trimeric HA.

B1: TCN-528 (5087_P17) (antibody, V domains shown)
VH: QVQLVQSGSEVKKPGASVKVSCKASGYTFTNYDINWIRQAPGQGLEWMGWINPNSGTTGSAQRFQGRVTITVDTSITTVYMELSSLRSDDTAIYYCARGRELLRLQHFLTDSQSERRDCFDPWGQGTLVTVSS
VL: DIQMTQSPSSLSASVGDRVTITCRANQDIGIYLNWYQQNPGKVPKLLLHGASSLQGGVPSRFSASGSGTDFTLTIHSLQPEDLATYYCQQSRRLPYTFGQGTRVELK
Regarding B1, the Trimeric HA Binding: RLU turned out to be 9490 RLU in test [1]; 24100 RLU in test [2]; 21200 RLU in [3]; 25200 RLU in test [4]; 47200 RLU in test [5]; 22600 RLU in test [6]. In addition, the Trimeric HA Binding: RLU in test [7] came to 39700 RLU; in test [8] it was 23300 RLU; in test [9] it was 26900 RLU; in test [10], 36800 RLU; in test [11], 44600 RLU; in test [12], 23100 RLU.

B2: TCN-523 (5248_A17) (antibody, V domains shown)
VH: QVQLVQSGAEVKKPGSSVKVSCKASGGSFSNYAFSWVRQAPGQGLEWMGGTIPLLGTTNYAQKFQGRVTISADQFTSTAYMELGSLRSEDTAVYYCTRRKMTTAFDSWGQGTLVTVSS
VL: QPVLTQPPSASASLGASVTLTCTLSSAYSNYKVDWYQQRPGKGPRFVMRVGTGGIVGSKGDGIPDRFSVLGSGLNRYLTIKNIQEEDESDYHCGADHGSGSNFVSPYVFGGGTKLTVL
For B2, the Trimeric HA Binding: RLU in test [13] is 55000 RLU; in [14], 22000 RLU; in test [15] it was 52000 RLU; in test [16] it was 28400 RLU; in test [17] it was 37600 RLU; in test [18] it was 51300 RLU. The Trimeric HA Binding: RLU in test [19] came to 6080 RLU; in test [20], 27800 RLU; in test [21] it was 34400 RLU; in test [22] it was 35500 RLU; in test [23], 46900 RLU; in [24], 36500 RLU. Besides, the Trimeric HA Binding: RLU in [1] turned out to be 85 RLU; in test [3] it was 139 RLU; in [4], 25500 RLU; in [5] it was 407 RLU; in test [6], 17600 RLU; in test [7], 24500 RLU. The Trimeric HA Binding: RLU worked out at 26200 RLU in test [8]; 3270 RLU in test [9]; 30700 RLU in test [10]; 18700 RLU in [11]; 882 RLU in [12].

B3: TCN-504 (3251_K17) (antibody, V domains shown)
VH: QVQLQESGPGLVKPSETLSLTCAVSGVSISNIDFYWGWIRQPPGKGLEWIGNIYYTGITFYNPSLSSRVAISIDTSKNQFSLTLTSVTAADTAMYYCARHYGDSEAINDAFDIWGQGTMLTVSS
VL: EIVMTQSPATLSVSPGERATLSCRASQSVGNSLAWYQQRPGQAPRLLIYGASTRATGIPPRFSGSGSGTEFTLTISSLQTEDFAVYYCQQYINWRPLSFGGGTKVEIK
Turning to B3, the Trimeric HA Binding: RLU in test [13] was 18500 RLU; in [14] it was 23300 RLU; in test [25], 35100 RLU; in [15], 32000 RLU; in test [16], 26600 RLU; in test [17], 30100 RLU. The Trimeric HA Binding: RLU in [18] came out at 34200 RLU; in [19], 37200 RLU; in [20], 21500 RLU; in test [21], 17600 RLU; in test [26], 38100 RLU; in [22], 20600 RLU. Also, the Trimeric HA Binding: RLU in [3] came out at 31000 RLU; in test [4], 24700 RLU; in [5], 19300 RLU; in test [6] it was 27300 RLU; in [7] it was 19700 RLU; in test [8], 15000 RLU. Further, the Trimeric HA Binding: RLU stood at 31400 RLU in test [9], 21400 RLU in test [10], 15600 RLU in test [11] and 22600 RLU in test [12].
